# Laboratory results published in US20220267750A1 (Merck KGaA, published 2022).
# B1: GP41-1 N-intein variant NINTΔA_TM fused with solubilization partner 138 (other)
# chain: MTRSGYALDLKTQVQTPQGMKEISNIQVGDLVLSNTGYNEVLNVFPKSKKKSYKITLEDGKEIITSEEHLFPTQTGEMNISGGLKEGMMLYVKEGGMNKDEAGGNWKQFKGKVKEQWGKLTDDDMTIIEGKRDQLVGKIQERYGYQKDQAEKEVVDWETRNEYRW
# Biological target: GP41-1 C-intein-thioredoxin fusion protein (CINT_TRX)
# Assay: cell-based or functional assay
binder,measurement,value
B1,catalytic rate (cleavage rate),~3 fold of the parent construct NINTΔA_CC
